The results in this text go back to paper PMC11298593, “ArcS from Thermococcus kodakarensis transfers L-lysine to preQ0 nucleoside derivatives as minimum substrate RNAs” (The Journal of Biological Chemistry, 2024).

The term Km denotes the substrate concentration at which the rate is half of its maximum. By kcat is commonly meant the maximal rate divided by the concentration of active sites.

Substrate in data set [1]: NCCCC[C@H](N)C(=O)O
The data set can be described thus: purified protein. Particulars: 204 μM S. cerevisiae tRNA-Phe-preQ0 co-substrate, pH 7.6, 5 mM MgCl2, 50 mM KCl, 60 °C, labelled compound, unit μM from text b13 (table heading prints μmol). The class given is biochemical, Thermococcus kodakarensis.

Substrate in data set [2]: N#Cc1cn([C@@H]2O[C@H](COP(=O)(O)O)[C@@H](O)[C@H]2O)c2nc(N)[nH]c(=O)c12
The data set can be described thus: purified protein. The class given is biochemical, Thermococcus kodakarensis. Particulars: 200 μM lysine co-substrate, pH 7.6, 5 mM MgCl2, 50 mM KCl, no 2-mercaptoethanol, 60 °C, unit μM from text b23 (table heading prints μmol).

B1: ArcS and RaSEA complex (ArcS-RaSEA complex) (Thermococcus kodakarensis KOD1) (protein)
chain: MEVIKHEGPGRLGVVRLGDYSFRTPALVGIDFTLSPFNSFFHPKEPGEYDFNLAPSIPLGFYTPDEVIQKAIGRLWSVNYDGFNAFYLPALRRTEYLEEFFKIIDRHNFDAVYLGNSKILIKEYRYFVRILRELRERFPNVMIIADLEPFFYPLAVYLGIDAFDTRSLKLYDFEGKGFTQFSPFLWSNEPNSLDFAREVILLVRKALEEGKLRYLVENFFPTQYNAGILRIADLEHPDYLEKYTPIQKETVYFISDASIRRPEVKRWHERVLERFTPPKNVELLLLFPCSAKKPYSFSRSHTLYRRAVKEALGSGTSKVHELILTSPFGVVPREWEWLAKYDIVVTGHWSEEEIKPAAELLAKTLEKYPEDIPIVAHLDEAYVEIAKLASELSGREIIFTDVKNGTTSHESLRSLTETLREFQIEGTKEDRTYRYFENIRKVFDFYFGVGAGEAILPENGQVKGSKMLRIFVEGQQTGTFTDGVISVTPYGMQRIYDALKSYWVKIDFELRGDVFAVGVEEADPRIRPDDIVGIVRDEKVVGVGKAVLSGEEMVRAKKGVAVKVRKRV
notes: recombinant complex expressed in E. coli, purified aerobically (RaSEA apo, no Fe-S cluster); His x 6-ArcS given for the co-expression; with Archaeosine synthase subunit beta
B1: in data set [1], the Km was 40.9 ± 8.7 µM and the kcat stood at 0.102 ± 0.0117 s⁻¹. Moreover, in data set [2], the Km came out at 433.4 ± 6.0 µM and the kcat came to 0.387 ± 0.0617 s⁻¹.
